Test results from patent US20160272683A1 (Novo Nordisk, published 2016).
Numbered stars: 1 amine (or outer) side, 2 acyl side, 3 side chain; on linkers, the order of the positions; unused ones are H or OH. Side chains are listed from the residue outwards. Ends that are not written are not given here. * marks the point of attachment. C20 diacid = O=C(O)CCCCCCCCCCCCCCCCCCC(=O)*; C18 diacid = O=C(O)CCCCCCCCCCCCCCCCC(=O)*; C16 diacid = O=C(O)CCCCCCCCCCCCCCC(=O)*; γGlu = O=C(O)[C@H](CCC(=O)[*:2])N[*:1]; C14 diacid = O=C(O)CCCCCCCCCCCCC(=O)*; AEEA = NCCOCCOCC(=O)O

B1: [N-terminal(C18 diacid-gGlu), des1, 4G, 15Q, 21Q, 23Y, 30S, 31G, 32T, 33Y]mimylin (peptide)
peptide: {C18 diacid-γGlu}-ASGLSTAALGRLSQELHELQTYPRTETGSGTY-NH2
SMILES: CC(C)C[C@H](NC(=O)CNC(=O)[C@H](CO)NC(=O)[C@H](C)NC(=O)CC[C@H](NC(=O)CCCCCCCCCCCCCCCCC(=O)O)C(=O)O)C(=O)N[C@@H](CO)C(=O)N[C@H](C(=O)N[C@@H](C)C(=O)N[C@@H](C)C(=O)N[C@@H](CC(C)C)C(=O)NCC(=O)N[C@@H](CCCNC(=N)N)C(=O)N[C@@H](CC(C)C)C(=O)N[C@@H](CO)C(=O)N[C@@H](CCC(N)=O)C(=O)N[C@@H](CCC(=O)O)C(=O)N[C@@H](CC(C)C)C(=O)N[C@@H](Cc1c[nH]cn1)C(=O)N[C@@H](CCC(=O)O)C(=O)N[C@@H](CC(C)C)C(=O)N[C@@H](CCC(N)=O)C(=O)N[C@H](C(=O)N[C@@H](Cc1ccc(O)cc1)C(=O)N1CCC[C@H]1C(=O)N[C@@H](CCCNC(=N)N)C(=O)N[C@H](C(=O)N[C@@H](CCC(=O)O)C(=O)N[C@H](C(=O)NCC(=O)N[C@@H](CO)C(=O)NCC(=O)N[C@H](C(=O)N[C@@H](Cc1ccc(O)cc1)C(N)=O)[C@@H](C)O)[C@@H](C)O)[C@@H](C)O)[C@@H](C)O)[C@@H](C)O
B2: [N-terminal(C20 diacid-gGlu), des1, 4G, 9V, 15Q, 21Q, 23Y, 30S, 31Q, 32T, 33Y]mimylin (peptide)
peptide: {C20 diacid-γGlu}-ASGLSTAVLGRLSQELHELQTYPRTETGSQTY-NH2
SMILES: CC(C)C[C@H](NC(=O)CNC(=O)[C@H](CO)NC(=O)[C@H](C)NC(=O)CC[C@H](NC(=O)CCCCCCCCCCCCCCCCCCC(=O)O)C(=O)O)C(=O)N[C@@H](CO)C(=O)N[C@H](C(=O)N[C@@H](C)C(=O)N[C@H](C(=O)N[C@@H](CC(C)C)C(=O)NCC(=O)N[C@@H](CCCNC(=N)N)C(=O)N[C@@H](CC(C)C)C(=O)N[C@@H](CO)C(=O)N[C@@H](CCC(N)=O)C(=O)N[C@@H](CCC(=O)O)C(=O)N[C@@H](CC(C)C)C(=O)N[C@@H](Cc1c[nH]cn1)C(=O)N[C@@H](CCC(=O)O)C(=O)N[C@@H](CC(C)C)C(=O)N[C@@H](CCC(N)=O)C(=O)N[C@H](C(=O)N[C@@H](Cc1ccc(O)cc1)C(=O)N1CCC[C@H]1C(=O)N[C@@H](CCCNC(=N)N)C(=O)N[C@H](C(=O)N[C@@H](CCC(=O)O)C(=O)N[C@H](C(=O)NCC(=O)N[C@@H](CO)C(=O)N[C@@H](CCC(N)=O)C(=O)N[C@H](C(=O)N[C@@H](Cc1ccc(O)cc1)C(N)=O)[C@@H](C)O)[C@@H](C)O)[C@@H](C)O)[C@@H](C)O)C(C)C)[C@@H](C)O
B3: [des1, 16K(C20 diacid-gGlu), 30S, 31G]mimylin (peptide)
peptide: ASELSTAALGRLSAK([γGlu-C20 diacid])LHELATLPRTETGSGSP-NH2
modifications: N-terminus assumed
SMILES: CC(C)C[C@H](NC(=O)[C@H](C)NC(=O)[C@H](C)NC(=O)[C@@H](NC(=O)[C@H](CO)NC(=O)[C@H](CC(C)C)NC(=O)[C@H](CCC(=O)O)NC(=O)[C@H](CO)NC(=O)[C@H](C)N)[C@@H](C)O)C(=O)NCC(=O)N[C@@H](CCCNC(=N)N)C(=O)N[C@@H](CC(C)C)C(=O)N[C@@H](CO)C(=O)N[C@@H](C)C(=O)N[C@@H](CCCCNC(=O)CC[C@H](NC(=O)CCCCCCCCCCCCCCCCCCC(=O)O)C(=O)O)C(=O)N[C@@H](CC(C)C)C(=O)N[C@@H](Cc1c[nH]cn1)C(=O)N[C@@H](CCC(=O)O)C(=O)N[C@@H](CC(C)C)C(=O)N[C@@H](C)C(=O)N[C@H](C(=O)N[C@@H](CC(C)C)C(=O)N1CCC[C@H]1C(=O)N[C@@H](CCCNC(=N)N)C(=O)N[C@H](C(=O)N[C@@H](CCC(=O)O)C(=O)N[C@H](C(=O)NCC(=O)N[C@@H](CO)C(=O)NCC(=O)N[C@@H](CO)C(=O)N1CCC[C@H]1C(N)=O)[C@@H](C)O)[C@@H](C)O)[C@@H](C)O
B4: [N-terminal(C20 diacid-gGlu), des1, 4G, 9V, 12K, 15Q, 21Q, 23Y, 25P, 30S, 31G, 32T, 33Y]mimylin (peptide)
peptide: {C20 diacid-γGlu}-ASGLSTAVLGKLSQELHELQTYPPTETGSGTY-NH2
SMILES: CC(C)C[C@H](NC(=O)CNC(=O)[C@H](CO)NC(=O)[C@H](C)NC(=O)CC[C@H](NC(=O)CCCCCCCCCCCCCCCCCCC(=O)O)C(=O)O)C(=O)N[C@@H](CO)C(=O)N[C@H](C(=O)N[C@@H](C)C(=O)N[C@H](C(=O)N[C@@H](CC(C)C)C(=O)NCC(=O)N[C@@H](CCCCN)C(=O)N[C@@H](CC(C)C)C(=O)N[C@@H](CO)C(=O)N[C@@H](CCC(N)=O)C(=O)N[C@@H](CCC(=O)O)C(=O)N[C@@H](CC(C)C)C(=O)N[C@@H](Cc1c[nH]cn1)C(=O)N[C@@H](CCC(=O)O)C(=O)N[C@@H](CC(C)C)C(=O)N[C@@H](CCC(N)=O)C(=O)N[C@H](C(=O)N[C@@H](Cc1ccc(O)cc1)C(=O)N1CCC[C@H]1C(=O)N1CCC[C@H]1C(=O)N[C@H](C(=O)N[C@@H](CCC(=O)O)C(=O)N[C@H](C(=O)NCC(=O)N[C@@H](CO)C(=O)NCC(=O)N[C@H](C(=O)N[C@@H](Cc1ccc(O)cc1)C(N)=O)[C@@H](C)O)[C@@H](C)O)[C@@H](C)O)[C@@H](C)O)C(C)C)[C@@H](C)O
B5: [N-terminal(C20 diacid-gGlu), des1, 4G, 15Q, 21Q, 23Y, 30S, 31Q, 32T, 33Y]mimylin (peptide)
peptide: {C20 diacid-γGlu}-ASGLSTAALGRLSQELHELQTYPRTETGSQTY-NH2
SMILES: CC(C)C[C@H](NC(=O)CNC(=O)[C@H](CO)NC(=O)[C@H](C)NC(=O)CC[C@H](NC(=O)CCCCCCCCCCCCCCCCCCC(=O)O)C(=O)O)C(=O)N[C@@H](CO)C(=O)N[C@H](C(=O)N[C@@H](C)C(=O)N[C@@H](C)C(=O)N[C@@H](CC(C)C)C(=O)NCC(=O)N[C@@H](CCCNC(=N)N)C(=O)N[C@@H](CC(C)C)C(=O)N[C@@H](CO)C(=O)N[C@@H](CCC(N)=O)C(=O)N[C@@H](CCC(=O)O)C(=O)N[C@@H](CC(C)C)C(=O)N[C@@H](Cc1c[nH]cn1)C(=O)N[C@@H](CCC(=O)O)C(=O)N[C@@H](CC(C)C)C(=O)N[C@@H](CCC(N)=O)C(=O)N[C@H](C(=O)N[C@@H](Cc1ccc(O)cc1)C(=O)N1CCC[C@H]1C(=O)N[C@@H](CCCNC(=N)N)C(=O)N[C@H](C(=O)N[C@@H](CCC(=O)O)C(=O)N[C@H](C(=O)NCC(=O)N[C@@H](CO)C(=O)N[C@@H](CCC(N)=O)C(=O)N[C@H](C(=O)N[C@@H](Cc1ccc(O)cc1)C(N)=O)[C@@H](C)O)[C@@H](C)O)[C@@H](C)O)[C@@H](C)O)[C@@H](C)O

What follows are binders tested against rat calcitonin receptor (rat) (UniProt P32214) (assay: SPA competition vs 125I-calcitonin, membranes with rat CTR (Assay VIII)).

Q: Which IC50 does the source give for {C16 diacid}-ASELSTAALGRLSAELHELATLPRTETGSGSP-NH2 [[N-terminal(C16 diacid), des1, 30S, 31G]mimylin] here?
A: 0.011 nM

Q: With B1 as the binder, how does the IC50 read?
A: 0.013 nM

Q: Which IC50 does the source give for B2 here?
A: 0.016 nM

Q: How did the IC50 turn out when {C16 diacid-γGlu}-ASELSTAALGRLSAELHELATLPRTETGSGSP-NH2 [[N-terminal(C16 diacid-gGlu), des1, 30S, 31G]mimylin] was run?
A: 0.013 nM

Q: With B3 as the binder, how does the IC50 read?
A: 0.065 nM

Q: How did the IC50 turn out when B4 was run?
A: 0.246 nM

Q: How did the IC50 turn out when {C14 diacid-γGlu}-ASELSTAALGRLSAELHELATLPRTETGSGSP-NH2 [[N-terminal(C14 diacid-gGlu), des1, 30S, 31G]mimylin] was run?
A: 0.017 nM

Q: For {C20 diacid-γGlu-AEEA}-ASELSTAALGRLSAELHELATLPRTETGSGSP-NH2 [[N-terminal(C20 diacid-gGlu-OEG), des1, 30S, 31G]mimylin], which IC50 is on record?
A: 0.044 nM

Q: How did the IC50 turn out when {C18 diacid}-ASELSTAALGRLSAELHELATLPRTETGSGSP-NH2 [[N-terminal(C18 diacid), des1, 30S, 31G]mimylin] was run?
A: 0.013 nM

Q: How did the IC50 turn out when B5 was run?
A: 0.012 nM

These binders were tested against rat amylin receptor (rat calcitonin receptor with rat RAMP 3) (rat) (UniProt P32214) (assay: SPA competition vs 125I-rat amylin, membranes with rat CTR + rat RAMP3 (Assay VI)).

Q: {C16 diacid}-ASELSTAALGRLSAELHELATLPRTETGSGSP-NH2 [[N-terminal(C16 diacid), des1, 30S, 31G]mimylin] was tested. Which IC50 did it give?
A: 0.064 nM

Q: With B1 as the binder, how does the IC50 read?
A: 0.013 nM

Q: B2 was tested. Which IC50 did it give?
A: 0.053 nM

Q: Which IC50 does the source give for {C16 diacid-γGlu}-ASELSTAALGRLSAELHELATLPRTETGSGSP-NH2 [[N-terminal(C16 diacid-gGlu), des1, 30S, 31G]mimylin] here?
A: 0.022 nM

Q: For B3, which IC50 is on record?
A: 1.3 nM

Q: B4 was tested. Which IC50 did it give?
A: 0.385 nM

Q: {C14 diacid-γGlu}-ASELSTAALGRLSAELHELATLPRTETGSGSP-NH2 [[N-terminal(C14 diacid-gGlu), des1, 30S, 31G]mimylin] was tested. Which IC50 did it give?
A: 0.122 nM

Q: For {C20 diacid-γGlu-AEEA}-ASELSTAALGRLSAELHELATLPRTETGSGSP-NH2 [[N-terminal(C20 diacid-gGlu-OEG), des1, 30S, 31G]mimylin], which IC50 is on record?
A: 0.146 nM

Q: How did the IC50 turn out when {C18 diacid}-ASELSTAALGRLSAELHELATLPRTETGSGSP-NH2 [[N-terminal(C18 diacid), des1, 30S, 31G]mimylin] was run?
A: 0.063 nM

Q: How did the IC50 turn out when B5 was run?
A: 0.078 nM
